The target of one data set is T1, PLD3 (active) (Homo sapiens, UniProt Q8IV08 60-490).
T1 sequence: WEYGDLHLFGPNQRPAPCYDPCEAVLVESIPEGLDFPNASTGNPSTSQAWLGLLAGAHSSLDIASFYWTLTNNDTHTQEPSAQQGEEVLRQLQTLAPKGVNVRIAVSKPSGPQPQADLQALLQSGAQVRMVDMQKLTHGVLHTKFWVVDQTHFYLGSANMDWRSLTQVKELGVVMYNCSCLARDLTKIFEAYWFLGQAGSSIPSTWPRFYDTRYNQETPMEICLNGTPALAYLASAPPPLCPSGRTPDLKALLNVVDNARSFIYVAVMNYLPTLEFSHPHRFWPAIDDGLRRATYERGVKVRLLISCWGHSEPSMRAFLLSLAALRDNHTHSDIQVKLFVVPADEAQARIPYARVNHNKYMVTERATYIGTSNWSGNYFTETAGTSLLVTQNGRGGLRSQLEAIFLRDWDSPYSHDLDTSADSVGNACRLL
Description: cryo-EM.

The target of a further data set is T2, PLD3(H201N,H416N) (Homo sapiens, UniProt Q8IV08 60-490, H201N;H416N).
T2 sequence: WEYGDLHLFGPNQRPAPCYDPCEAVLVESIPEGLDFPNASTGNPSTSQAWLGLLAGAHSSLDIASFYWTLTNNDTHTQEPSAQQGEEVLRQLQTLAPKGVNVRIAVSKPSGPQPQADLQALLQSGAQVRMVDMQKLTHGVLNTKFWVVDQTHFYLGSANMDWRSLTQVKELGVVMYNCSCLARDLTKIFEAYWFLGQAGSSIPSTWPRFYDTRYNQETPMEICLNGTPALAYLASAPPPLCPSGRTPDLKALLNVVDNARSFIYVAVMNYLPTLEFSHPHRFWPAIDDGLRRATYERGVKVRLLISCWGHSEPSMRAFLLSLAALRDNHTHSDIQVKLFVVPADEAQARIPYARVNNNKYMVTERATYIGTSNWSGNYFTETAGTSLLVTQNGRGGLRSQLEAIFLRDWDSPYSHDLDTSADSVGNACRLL
Briefly: fluorescence anisotropy. Background: In fluorescence polarisation assays a small probe gives low polarisation when free and higher when bound to something large.

The data set “SEC” deals with the molecule itself. Description: SEC. On the technique in general: SEC sorts molecules by how far they enter the pores of the column.

On to UCUCUCUCUCUCUCUCUCUC (ssRNA, phosphorothioate backbone) [(rU*rC*)10 ssRNA], for which the binding result in the data set with PLD3 (active) is “binds”. Regarding AGCUUAACCUG (ssRNA) [RNA9.2s 11 nt], the binding result with PLD3(H201N,H416N) was “no binding”.

B1: PLD3(V232M), soluble catalytic domain (enzyme, human)
chain: WEYGDLHLFGPNQRPAPCYDPCEAVLVESIPEGLDFPNASTGNPSTSQAWLGLLAGAHSSLDIASFYWTLTNNDTHTQEPSAQQGEEVLRQLQTLAPKGVNVRIAVSKPSGPQPQADLQALLQSGAQVRMVDMQKLTHGVLHTKFWVVDQTHFYLGSANMDWRSLTQVKELGMVMYNCSCLARDLTKIFEAYWFLGQAGSSIPSTWPRFYDTRYNQETPMEICLNGTPALAYLASAPPPLCPSGRTPDLKALLNVVDNARSFIYVAVMNYLPTLEFSHPHRFWPAIDDGLRRATYERGVKVRLLISCWGHSEPSMRAFLLSLAALRDNHTHSDIQVKLFVVPADEAQARIPYARVNHNKYMVTERATYIGTSNWSGNYFTETAGTSLLVTQNGRGGLRSQLEAIFLRDWDSPYSHDLDTSADSVGNACRLL
As for B1, the binding result in “SEC” was “binds”.

The values above are taken from article PMC11470960 (Immunity, 2024).
